Reference: patent US20250257130A1 (NONA BIOSCIENCES SUZHOU, published 2025)

Experiments:
[1] = biological target: T1, Human ROR1-ECD-his (Acro Biosystems RO1-H522y) (human, UniProt Q01973 30-406); experiment: BLI in-tandem, row = 1st Ab; competitor (2nd Ab): PR007424
T1 construct: extracellular domain; bought protein; also called hROR1-ECD-his; hu-ROR1-ECD-his
Source text: To determine if anti-ROR1 antibodies bind to human ROR1 on different or approximate binding epitopes, the ForteBio Octet® RED96e platform was used to perform epitope competition experiments on the anti-ROR1 antibodies. Human ROR1 protein (Acrobiosystems, #RO1-H522y) was biotinylated and then captured onto SA biosensors (ForteBio, #18-5020) to reach loading level of 0.3-0.4 nm. The in-tandem competition assay format was applied and it contains two association steps. Firstly, the antigen-loaded biosensors bind to each antibody (a.k.a, First antibody, 1st Ab) with a saturating concentration of 200 nM for 180 seconds to reach equilibrium and then secondly bind to the competing antibodies (a.k.a, Second antibody, 2nd Ab) of 200 nM for 180 seconds. The second binding signals were recorded as the 100% signal of each antibody when the first antibodies were replaced by kinetics buffer. All the binding data were analyzed using ForteBio Data Analysis 11.0 software. The inhibition rate is calculated by the following formula: […]

[2] = biological target: T2, cynomolgus ROR1 on CHO-K1-cynoROR1 cells (cynomolgus monkey, UniProt A0A2K5WTX7 30-937); experiment: flow cytometry on CHOK1-cynoROR1 cells, MFI (APC-A Median) [middle panel, letter not given]
T2 construct: whole, on cells
Description: Binding of recombinant anti-ROR1 antibodies to human or cynomolgus ROR1-overexpressing cells was tested by flow cytometry. In this example, ROR1-expressing cell lines are HEK293T cell lines that had been transfected to express human ROR1 on the surface (HEK293T-hu ROR1, KYINNO BIOTECHNOLOGY CO., LTD, Catalog #KC-1018), CHO-K1 cell lines that had been transfected to express cynomolgus ROR1 (CHOK1-cyno ROR1), PANC-1 (ATCC, catalog: CRL-1469) or A549 cell lines (Shanghai Institute of Biochemistry and Cell Biology, Chinese Academy of Sciences).
In brief, anti-ROR1 antibodies were serially diluted in staining buffer (PBS containing 2% FBS). Antibody solution was incubated with 1×10⁵ cells at 4° C. for 1 hour. […] After 1-hour incubation at 4° C., cells were washed twice with staining buffer and subjected to flow cytometry. PR000374 (Bench marker 1) and non-relevant IgG isotype control (Crownbio) were used as positive and negative controls, respectively.

T1 sequence (Q01973 30-406): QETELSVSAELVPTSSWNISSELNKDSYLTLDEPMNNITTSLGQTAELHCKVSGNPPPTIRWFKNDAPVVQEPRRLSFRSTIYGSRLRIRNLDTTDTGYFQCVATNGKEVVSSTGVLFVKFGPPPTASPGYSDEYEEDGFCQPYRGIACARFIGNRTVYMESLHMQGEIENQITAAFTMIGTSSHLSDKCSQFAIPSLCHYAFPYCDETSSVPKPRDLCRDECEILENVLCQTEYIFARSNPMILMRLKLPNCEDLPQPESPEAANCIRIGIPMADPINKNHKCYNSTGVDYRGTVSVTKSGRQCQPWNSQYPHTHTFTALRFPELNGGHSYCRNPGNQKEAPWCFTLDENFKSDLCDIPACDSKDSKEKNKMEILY

B1: PR000374 (antibody, human IgG1, kappa, V domains shown)
VH: EVQLVESGGGLVQPGRSLRLSCTASGSDINDYPITWVRQAPGQGLEWIGFINSGGSTWYASWVKGRFTISRDDSKSIAYLQMNSLKTEDTAVYYCARGYSTYYRDFNIWGQGTLVTVSS
VL: DIQMTQSPSSLSASVGDRVTINCQASQSIDSNLAWFQQKPGQPPKLLIYRASNLASGVPDRFSGSGSGTDFTLTISSLEAEDVATYYCLGGVGAVSYRTSFGGGTKVEIKR
notes: positive control; also called Bench marker 1
- Inhibition (%) [1]: -8.53%
- EC50 (read off the curve) [2]: ~4 nM
